Assay results from patent publication US20220411483A1 (Chugai, published 2022).
Changes are numbered by the printed parent chain. Names may count otherwise. Where two headings read alike, the source gives them in different places. Each block holds one binder with its values, some of them ahead of it.

Experiments:
FcgRIIaR [1] = biological target: T1, FcgRIIaR (human, UniProt P12318 34-217); assay: SPR, amount bound per captured antibody
T1 construct: extracellular domain; also called FcγRIIa R type; FcγRIIa (R type)
T1 sequence (looked up): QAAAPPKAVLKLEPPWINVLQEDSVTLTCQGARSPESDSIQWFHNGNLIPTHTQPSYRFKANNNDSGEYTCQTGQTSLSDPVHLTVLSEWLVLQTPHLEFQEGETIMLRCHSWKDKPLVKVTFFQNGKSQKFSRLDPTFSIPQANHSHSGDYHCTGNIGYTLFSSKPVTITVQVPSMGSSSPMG

FcgRIIb [2] = biological target: T2, FcgRIIb (human, UniProt P31994 43-217); assay: SPR, amount bound per captured antibody
T2 construct: extracellular domain; also called FcγRIIb
T2 sequence (looked up): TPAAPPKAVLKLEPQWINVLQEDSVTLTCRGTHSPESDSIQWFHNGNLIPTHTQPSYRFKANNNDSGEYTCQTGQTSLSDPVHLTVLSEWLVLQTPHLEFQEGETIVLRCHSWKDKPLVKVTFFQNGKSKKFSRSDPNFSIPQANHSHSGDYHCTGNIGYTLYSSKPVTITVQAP

FcgRIIaR [3] = biological target: T1, FcgRIIaR; assay: SPR, amount bound per captured antibody; remark: listed apart in the source
FcgRIIb [4] = biological target: T2, FcgRIIb; assay: SPR, amount bound per captured antibody; remark: listed apart in the source
FcgRIIaR [5] = biological target: T1, FcgRIIaR; assay: SPR (Biacore)
FcgRIIaH [6] = biological target: T3, FcgRIIaH (human, UniProt P12318 34-217); assay: SPR (Biacore)
T3 construct: extracellular domain; also called FcγRIIa H type
T3 sequence (looked up): T1 sequence (looked up) with R134H

FcgRIa [7] = biological target: T4, FcgRIa (human, UniProt P12314 16-292); assay: SPR (Biacore)
T4 construct: also called FcγRIa; FcγRI

FcgRIIb [8] = biological target: T2, FcgRIIb; assay: SPR (Biacore)
FcgRIIIaV [9] = biological target: T5, FcgRIIIaV (human, UniProt P08637 17-208); assay: SPR (Biacore)
T5 construct: extracellular domain; also called FcγRIIIa V type

FcgRIIaR [10] = biological target: T1, FcgRIIaR; assay: SPR (Biacore); remark: listed apart in the source
FcgRIIaH [11] = biological target: T3, FcgRIIaH; assay: SPR (Biacore); remark: listed apart in the source
FcgRIa [12] = biological target: T4, FcgRIa; assay: SPR (Biacore); remark: listed apart in the source
FcgRIIb [13] = biological target: T2, FcgRIIb; assay: SPR (Biacore); remark: listed apart in the source
FcgRIIIaV [14] = biological target: T5, FcgRIIIaV; assay: SPR (Biacore); remark: listed apart in the source

T5 sequence (P08637 17-208 F176V): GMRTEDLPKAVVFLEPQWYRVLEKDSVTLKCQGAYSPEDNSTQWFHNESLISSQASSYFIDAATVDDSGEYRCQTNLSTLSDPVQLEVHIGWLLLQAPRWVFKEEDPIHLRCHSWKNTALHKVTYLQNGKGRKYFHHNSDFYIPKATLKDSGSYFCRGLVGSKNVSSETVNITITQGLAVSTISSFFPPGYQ
T4 sequence (P12314 16-292): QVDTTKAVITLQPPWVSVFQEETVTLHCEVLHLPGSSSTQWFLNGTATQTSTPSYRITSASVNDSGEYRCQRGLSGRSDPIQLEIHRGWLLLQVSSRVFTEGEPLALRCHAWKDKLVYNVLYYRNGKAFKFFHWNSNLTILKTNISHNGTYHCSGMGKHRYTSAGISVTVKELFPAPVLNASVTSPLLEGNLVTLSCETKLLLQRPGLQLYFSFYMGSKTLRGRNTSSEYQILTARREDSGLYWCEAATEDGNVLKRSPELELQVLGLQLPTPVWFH

B1: IL6R-BP355/IL6R-L (antibody, human IgG1, kappa, name in EU numbering)
heavy: QVQLQESGPGLVKPSETLSLTCAVSGHSISHDHAWSWVRQPPGEGLEWIGFISYSGITNYNPSLQGRVTISRDNSKNTLYLQMNSLRAEDTAVYYCARSLARTTAMDYWGEGTLVTVSSASTKGPSVFPLAPSSKSTSGGTAALGCLVKDYFPEPVTVSWNSGALTSGVHTFPAVLQSSGLYSLSSVVTVPSSSLGTQTYICNVNHKPSNTKVDKKVEPKSCDKTHTCPPCPAPDLLGDDSVFLFPPKPKDTLMISRTPEVTCVVVDVKEEDGEVKFNWYVDGVEVHNAKTKPREEQYNSTYRVVSVLTVLHQDWLNGKEYKCKVSNKALPAPIEKTISKAKGQPREPQVYTLPPSRDELTKNQVSLTCLVKGFYPSDIAVEWESNGQPENNYKTTPPVLDSDGSFFLYSKLTVDKSRWQQGNVFSCSVMHEALHNHYTQESLSLSP
light: not shown
Relative FcgRIIaR-binding Activity (FcgRIIaR [1]): 11.6 IL6R-BP267/IL6R-L=100
Relative FcgRIIb-binding Activity (FcgRIIb [2]): 14.4 IL6R-BP267/IL6R-L=100

B2: IL6R-BP361/IL6R-L (antibody, human IgG1, kappa, name in EU numbering)
heavy: B1 heavy with K269R
light: not shown
Relative FcgRIIaR-binding Activity (FcgRIIaR [1]): 17.3 IL6R-BP267/IL6R-L=100
Relative FcgRIIb-binding Activity (FcgRIIb [2]): 27.7 IL6R-BP267/IL6R-L=100

B3: IL6R-P636/IL6R-L (antibody, human IgG1, kappa)
heavy: B1 heavy with D239G, V266I, K269R, E441K
light: not shown
Relative FcgRIIaR-binding Activity (FcgRIIaR [3]): 13.8 IL6R-G1d/IL6R-L=100
Relative FcgRIIb-binding Activity (FcgRIIb [4]): 120 IL6R-G1d/IL6R-L=100
Relative FcgRIIaR-binding Activity (FcgRIIaR [5]): 0.023 KD(G1d)/KD(variant)
Relative FcgRIIaH-binding Activity (FcgRIIaH [6]): 0.006 KD(G1d)/KD(variant)
Relative FcgRIa-binding Activity (FcgRIa [7]): 0.0007 KD(G1d)/KD(variant)
Relative FcgRIIb-binding Activity (FcgRIIb [8]): 1.77 KD(G1d)/KD(variant)
Relative FcgRIIIaV-binding Activity (FcgRIIIaV [9]): 0.008 KD(G1d)/KD(variant)

B4: IL6R-P625/IL6R-L (antibody, human IgG1, kappa)
heavy: B1 heavy with L236K, D239G, V266I, K269A, E441K
light: not shown
Relative FcgRIIaR-binding Activity (FcgRIIaR [3]): 26.8 IL6R-G1d/IL6R-L=100
Relative FcgRIIb-binding Activity (FcgRIIb [4]): 141 IL6R-G1d/IL6R-L=100
Relative FcgRIIaR-binding Activity (FcgRIIaR [5]): 0.051 KD(G1d)/KD(variant)
Relative FcgRIIaH-binding Activity (FcgRIIaH [6]): 0.005 KD(G1d)/KD(variant)
Relative FcgRIa-binding Activity (FcgRIa [7]): 0.0007 KD(G1d)/KD(variant)
Relative FcgRIIb-binding Activity (FcgRIIb [8]): 3.06 KD(G1d)/KD(variant)
Relative FcgRIIIaV-binding Activity (FcgRIIIaV [9]): 0.005 KD(G1d)/KD(variant)

B6: IL6R-P629/IL6R-L (antibody, human IgG1, kappa)
heavy: B1 heavy with D239K, V266I, K269A, E441K
light: not shown
Relative FcgRIIaR-binding Activity (FcgRIIaR [3]): 29.9 IL6R-G1d/IL6R-L=100
Relative FcgRIIb-binding Activity (FcgRIIb [4]): 164 IL6R-G1d/IL6R-L=100
Relative FcgRIIaR-binding Activity (FcgRIIaR [5]): 0.047 KD(G1d)/KD(variant)
Relative FcgRIIaH-binding Activity (FcgRIIaH [6]): 0.01 KD(G1d)/KD(variant)
Relative FcgRIa-binding Activity (FcgRIa [7]): 0.1 KD(G1d)/KD(variant)
Relative FcgRIIb-binding Activity (FcgRIIb [8]): 7.97 KD(G1d)/KD(variant)
Relative FcgRIIIaV-binding Activity (FcgRIIIaV [9]): 0.007 KD(G1d)/KD(variant)

B8: IL6R-P665/IL6R-L (antibody, human IgG1, kappa)
heavy: B1 heavy with V266I, K269A, Y298D, N299A, A332R, P398M, E441K
light: not shown
notes: also called IL6R-P665/1L6R-L
Relative FcgRIIaR-binding Activity (FcgRIIaR [3]): 15 IL6R-G1d/IL6R-L=100
Relative FcgRIIb-binding Activity (FcgRIIb [4]): 121 IL6R-G1d/IL6R-L=100
Relative FcgRIIaR-binding Activity (FcgRIIaR [5]): 0.025 KD(G1d)/KD(variant)
Relative FcgRIIaH-binding Activity (FcgRIIaH [6]): 0.002 KD(G1d)/KD(variant)
Relative FcgRIa-binding Activity (FcgRIa [7]): 0.0002 KD(G1d)/KD(variant)
Relative FcgRIIb-binding Activity (FcgRIIb [8]): 1.6 KD(G1d)/KD(variant)
Relative FcgRIIIaV-binding Activity (FcgRIIIaV [9]): 0.005 KD(G1d)/KD(variant)

More lines, now with the values ahead:

Relative FcgRIIaR-binding Activity (FcgRIIaR [10]): 0.022 KD(G1d)/KD(variant)
Relative FcgRIIaH-binding Activity (FcgRIIaH [11]): 0.004 KD(G1d)/KD(variant)
Relative FcgRIa-binding Activity (FcgRIa [12]): 0.0005 KD(G1d)/KD(variant)
Relative FcgRIIb-binding Activity (FcgRIIb [13]): 1.26 KD(G1d)/KD(variant)
Relative FcgRIIIaV-binding Activity (FcgRIIIaV [14]): 0.005 KD(G1d)/KD(variant)
B5: IL6R-P699/IL6R-L (antibody, human IgG1, kappa)
heavy: B1 heavy with D239G, V266I, K269R, E270P, E441K
light: not shown
notes: Printed H238P read as H268P

Relative FcgRIIaR-binding Activity (FcgRIIaR [10]): 0.023 KD(G1d)/KD(variant)
Relative FcgRIIaH-binding Activity (FcgRIIaH [11]): 0.006 KD(G1d)/KD(variant)
Relative FcgRIa-binding Activity (FcgRIa [12]): 0.0006 KD(G1d)/KD(variant)
Relative FcgRIIb-binding Activity (FcgRIIb [13]): 1.27 KD(G1d)/KD(variant)
Relative FcgRIIIaV-binding Activity (FcgRIIIaV [14]): 0.008 KD(G1d)/KD(variant)
B7: IL6R-P702/IL6R-L (antibody, human IgG1, kappa)
heavy: B1 heavy with D239G, F243M, V266I, K269R, E441K
light: not shown
